According to patent publication US20230165982A1 (HOBER BIOTECH, published 2023):

Molecular target: Human epidermal growth factor receptor 2 (HER2) (human, UniProt P04626 23-1255)
Assay: cell-based or functional assay

B1: 99mTc-ADAPT6 (designed binder)
chain: GSSHHHHHHDEAVDANSLAAAKETALYHLDRLGVADAYKDLIDKAKTVEGVKARYFEILHALP
modifications: also: 99mTc(CO)3 chelated by the His6 subsequence (residues 4-9)
For B1, the “tumor-to-contralateral breast ratio (SPECT), 2 h after injection of 250 µg” value was 7.8 and the “tumor-to-contralateral breast ratio (SPECT), patient 17 (tumor later found FISH-negative), 2 h after injection of 1000 µg” value was 1.33.
